According to paper PMC6353898, “A Rational Approach for Creating Peptides Mimicking Antibody Binding” (Scientific Reports, 2019):

B1: Pep11 (designed binder)
peptide: WSGENGPGFYDYEA
B2: Pep22 (designed binder)
peptide: WSGENGPGTFYDYEA
B3: Pep6 (designed binder)
peptide: WSGENGPGYFDYEA

Molecular target: EGFR recombinant human protein (human) (UniProt P00533)
Test: SPR; EGFR (20 µg/mL) or BSA (20 µg/mL) covalently attached (EDC/NHS) to a carboxymethylated dextran chip; peptides injected as analytes at 15 µL/min; 25 °C; PBS with 0.01% Tween 20, pH 7.4; global fit, 1:1 Langmuir model with mass transport; KD from koff/kon

In order of falling Kd:
1. B3  4800 nM
2. B2  595 nM
3. B1  252 nM
